According to the supplement of paper PMC10567573:

B1: CPN1 (parent)
chain: RGVRRTASTPTPDDKLFQKLAKVY
B2: HESX1 (parent)
chain: QKKDCVPLMKPHRPWADTCSSSGK

Variants of: B1
Experiment: protein stability index of a GFP-peptide fusion (GPS, HEK-293T) (PSI 1-6); higher = more stable
Conditions: c terminus: a fixed tail appended
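Also: lentivirally expressed fusions sorted by FACS into six bins by GFP to DsRed ratio, PSI derived from sequencing read proportions per bin multiplied by bin number.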

Protein stability index, by site and new letter:
K22: G 2.82; D 1.95; Q 1.7; C 1.8; W 2.19; P 2.37; I 1.45; M 2.04; Y 1.97; A 2.19; N 2.4; E 1.87; L 2.73; V 2.14; R 2.07; S 1.93; T 1.96; H 1.98; F 1.96
K19: H 2.12; W 2.21; V 2.1; T 1.98; A 1.62; S 1.74; P 2.93; F 2.53; Q 1.96; G 2.21; D 2.67; Y 1.34; N 2.16; L 2.36; E 2.54; R 2.49
V23: C 2.58; Y 1.9; M 1.9; P 3.51; R 3.84; D 3.02; A 2.45; F 1.64; W 1.92; I 2.27; K 2.96; E 3.84; N 3.73; Q 3.44; T 2.4; H 2.78; L 2.18; G 3.09; S 2.7
Y24: W 1.98; T 3.64; A 2.51; M 1.66; E 3.49; V 2.7; P 2.72; I 2.6; Q 2.92; S 2.72; H 3.1; F 1.95; R 2.29; K 3.95; N 3.33; G 3; L 2.49; C 2.22; D 3.48
Q18: W 1.37; Y 1.78; P 2.7; S 2.09; R 1.77; T 2.42; V 1.82
A21: R 1.83; V 1.6; L 1.58; S 2.15; Y 2.27; N 2.66; P 2.62; M 1.73; Q 2.48; G 3.23; E 3.11; I 1.85; D 2.78; K 1.76; W 2.22; F 1.64; H 2.29; T 1.78; C 2.22
L20: R 3.3; W 2.58; T 3.52; I 1.92; F 1.82; H 3.22; Q 3.17; C 2.56; G 3.86; K 3.68; E 3.85; S 3.7; N 3.48; M 2.23; D 4.06; Y 2.4; A 3.4; P 3.58; V 3.48

Variants of: B2
Experiment: as above
Conditions: c terminus: a fixed tail appended

Protein stability index of substitutions, site by site:
M9: S 2.93; F 2.85; N 3.58; L 3.41; T 3.77; E 4.04; W 3; H 3.89; Y 3.2; R 3.13; P 3.51; G 4.27; C 3.76; I 3.23; K 3.08; D 4.08; A 3.69
K10: R 3.48; Y 3.45; N 4.25; T 3.35; V 3.94; G 3.47; H 3.79; L 3.58; F 3.21; D 4.83; C 3.88; Q 4.19; M 2.92; I 3.7; W 2.52; A 3.18; S 3.74
K3: A 3.52; N 3.67; L 3.42; G 3.2; C 3.27; D 3.81; S 3.69; V 3.47; P 3.62; H 3.66; Q 3.06; W 4.36; M 3.53; I 3.01; T 3.13; F 4.05; Y 3.06; R 2.92
R13: D 4.11; C 3.26
V6: K 2.57; S 3.4; L 2.92; P 3.31; C 3.1; E 4.38; D 3.11; N 3.98; I 3.03; Y 3.01; Q 2.98; G 3.46; H 3.17; A 4.1; F 3.28; M 3.05; T 3.92; R 2.88; W 3.08
P7: W 1.76; C 2.74; F 2.07; L 2.68; K 2.8; H 2.92; Y 2.78; A 2.79; I 2.44; D 3.93; M 3.17; R 2.46; V 2.56; S 3.38; T 2.7; N 3.07; Q 3.34
Q1: K 3.06; E 3.98; N 3.22; D 3.95; F 3.17; W 2.69; R 3.74; S 3.49; L 2.01; P 3.66; T 3.4; M 3.03; A 2.76; C 2.94; Y 2.45; G 4.01; H 3.86; I 3.46
D4: W 2.39; P 2.86; T 2.49; I 3.25; Q 3.54; A 2.87; K 2.89; H 3.08; S 2.92; F 2.61; R 2.43; V 2.17; Y 2.72; C 2.38; G 3.05; L 2.38; N 3.24; M 2.12
H12: G 3.98; C 3.42; L 3.91; W 2.29; M 3.18; A 4; N 3.77; Q 3.94; F 3.25; I 3.07; Y 3.29; R 4.82; S 4.05; D 4.49; E 4.44; P 4.01; K 3.73; T 3.08
C5: V 3.78; G 2.62; D 3.57; T 3.2; Q 2.49; E 4.15; K 2.81; I 2.51; H 3.83; Y 3.38; S 3.4; N 3.06; P 3.17; F 3.38; M 3.19; A 3.08; L 3.59; W 3.34; R 4.16
P11: I 3.42; S 3.64; E 3.1; H 3.51; Q 2.74; R 3.46; M 3.83; T 4.68; D 3.96; W 3.16; F 3.03; G 3.87; L 2.85; Y 2.55; K 3.42; A 3.29; N 3.48
L8: N 3.19; Q 4.1; V 3.28; S 3.86; G 3.18; Y 3.78; F 3.14; H 2.31; P 3.49; K 3.73; R 2.59; C 2.7; M 3; T 2.82; D 3.93; I 2.82; E 3.58; W 3.47; A 3.29
K2: E 4.16; T 3.67; V 3.12; Y 2.51; S 3.06; D 4.3; M 3.24; A 3.27; F 3.46; H 3.4; L 3.3; C 4.18; G 3.06; I 3.17; N 3.33; W 2.88; P 3.89
